Laboratory results from article doi:10.1101/2022.03.14.484294 (bioRxiv, 2022).

Molecular target: Recombinant human Rac1 (Q2-L177), His-tagged (human, UniProt P63000 2-177)
Assay: AlphaScreen or HTRF

B1: Truncated recombinant human Tiam1 (R1033-E1406), FLAG-tagged (domain or fragment)
chain: RQLSDADKLRKVICELLETERTYVKDLNCLMERYLKPLQKETFLTQDELDVLFGNLTEMVEFQVEFLKTLEDGVRLVPDLEKLEKVDQFKKVLFSLGGSFLYYADRFKLYSAFCASHTKVPKVLVKAKTDTAFKAFLDAQNPKQQHSSTLESYLIKPIQRILKYPLLLRELFALTDAESEEHYHLDVAIKTMNKVASHINEMQKIHEEFGAVFDQLIAEQTGEKKEVADLSMGDLLLHTTVIWLNPPASLGKWKKEPELAAFVFKTAVVLVYKDGSKQKKKLVGSHRLSIYEDWDPFRFRHMIPTEALQVRALASADAEANAVCEIVHVKSESEGRPERVFHLCCSSPESRKDFLKAVHSILRDKHRRQLLKTE
B1: binds.
